Source: patent US5728677, “Methods of inhibiting T-cell dependent proliferation of peripheral blood lymphocytes using the CD2-binding domain of lymphocyte function associated antigen 3” (Biogen, Inc., dated 1998)

B1: M102 deletion mutant of LFA-3 (ligand)
chain: FSQQIYGVVYGNVTFHVPSNVPLKEVLWKKQKDKVAELENSEFRAFSSFKNRVYLDTVSGSLTIYNLTSSDEDEYEMESPNITDTMKFFLYVLESLPSPTLTCALTNGSIEVQCMIPEHYNSHRGLIMYSSGHSRHRYALIPIPLAVITTCIVLYMNGILKCDRKPDRTNSN
B2: M100 deletion mutant of LFA-3 (ligand)
chain: FSQQIYGVVYDEDEYEMESPNITDTMKFFLYVLESLPSPTLTCALTNGSIEVQCMIPEHYNSHRGLIMYSWDCPMEQCKRNSTSIYFKMENDLPQKIQCTLSNPLFNTTSSIILTTCIPSSGHSRHRYALIPIPLAVITTCIVLYMNGILKCDRKPDRTNSN
B3: M57 deletion mutant of LFA-3 (ligand)
chain: FSQQIYGVVYGNVTFHVPSNVPLKEVLWKKQKDKVAELENSEFRAFSSFKSLTIYNLTSSDEDEYEMESPNITDTMKFFLYVLESLPSPTLTCALTNGSIEVQCMIPEHYNSHRGLIMYSWDCPMEQCKRNSTSIYFKMENDLPQKIQCTLSNPLFNTTSSIILTTCIPSSGHSRHRYALIPIPLAVITTCIVLYMNGILKCDRKPDRTNSN
B4: M101 deletion mutant of LFA-3 (ligand)
chain: FSQQIYGVVYGNVTFHVPSNVPLKEVLWKKQKDKVAELENSEFRAFSSFKNRVYLDTVSGSLTIYNLTSSWDCPMEQCKRNSTSIYFKMENDLPQKIQCTLSNPLFNTTSSIILTTCIPSSGHSRHRYALIPIPLAVITTCIVLYMNGILKCDRKPDRTNSN

How the values were obtained:
[1] = target: T1, CD2 (human, UniProt P06729)
[2] = target: T1, CD2; remark: listed apart in the source
Target sequence in this assay (P06729 25-351): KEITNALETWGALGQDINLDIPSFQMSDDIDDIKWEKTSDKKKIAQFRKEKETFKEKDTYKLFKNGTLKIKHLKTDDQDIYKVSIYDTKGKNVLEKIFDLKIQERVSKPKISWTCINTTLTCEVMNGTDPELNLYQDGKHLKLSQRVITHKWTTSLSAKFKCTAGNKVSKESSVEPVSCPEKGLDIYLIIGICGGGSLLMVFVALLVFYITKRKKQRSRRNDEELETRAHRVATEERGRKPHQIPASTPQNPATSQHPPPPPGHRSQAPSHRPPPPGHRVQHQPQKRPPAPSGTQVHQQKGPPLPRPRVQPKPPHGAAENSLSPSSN

[3] = target: T1, CD2; assay: Jurkat cell binding assay, microscopy
Procedure: M57/CHO cells, P24/CHO cells and CHO cells (1 ×10^5) were added to separate wells of a 6-well plate (Corning) and washed twice with RPMI Complete Medium. Jurkat cells (CD2^+), obtained as a gift from Dr. Timothy Springer (Dana Farber Cancer Inst., Boston, Mass.) were washed three times with a solution of RPMI, 10% FCS, 4 mM L-glutamine, and then 5 ×10^6 cells were added to each well and incubated for 4 hours at 0° C. Cells were then washed gently three times with RPMI and examined under the microscope at 40X and 100X magnification for cell-cell binding.
The M100/CHO, M101/CHO and M102/CHO transfectants were subjected to a Jurkat cell binding assay, as described in Example 4 above.

| Molecule | inhibition of PHA dependent PBL proliferation, optimal PHA [1] | inhibition of PHA dependent PBL proliferation, suboptimal PHA (0.1 µg/ml) [2] | binding result [3] |
| --- | --- | --- | --- |
| anti-CD2 monoclonal antibody TS2/18 | 20% | – | – |
| LFA3TIP (Fc fusion) | 41% | 70% | – |
| B1 | – | – | binds |
| B2 | – | – | no binding |
| B3 | – | – | no binding |
| B4 | – | – | binds |
